# According to publication PMC3328386 (The Journal of Cell Biology, 2012):
# B1: recombinant HERC2 ZZ domain (amino acids 2702–2755), WT (domain or fragment)
# chain: IHPGVTCDGCQMFPINGSRFKCRNCDDFDFCETCFKTKKHNTRHTFGRINEPGQ
# Experiments:
# recombinant SUMO1 = recombinant SUMO1 (UniProt P63165 1-97); assay: ITC
# recombinant SUMO2 = recombinant SUMO2 (UniProt P61956 1-95); assay: ITC
# recombinant SUMO2, sequence (P61956 whole entry): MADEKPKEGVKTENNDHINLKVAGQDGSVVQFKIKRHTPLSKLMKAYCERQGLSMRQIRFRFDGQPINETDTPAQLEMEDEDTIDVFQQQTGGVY
# recombinant SUMO1, sequence (P63165 1-97): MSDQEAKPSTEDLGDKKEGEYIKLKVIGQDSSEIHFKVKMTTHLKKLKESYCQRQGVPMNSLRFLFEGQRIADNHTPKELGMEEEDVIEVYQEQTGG
binder,measurement,setting,value
B1,Kd,recombinant SUMO1,~3 µM
same,Kd,recombinant SUMO2,~60 µM
